Test results: the nanobody polyreactivity screen of Harvey et al. (2022)

Assay: yeast display, Sf9 membrane polyspecificity reagent, FACS + sequencing; frameworks hold sequencing errors
Summary of the method: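 Nanobodies came from a synthetic yeast display library in Saccharomyces cerevisiae BJ5465, induced with galactose for 36–48 hours and stained for 1 hour at 4 °C with 10% biotinylated, detergent-solubilized Sf9 membrane reagent. Cells were enriched on streptavidin microbeads and then FACS-sorted, with low and high (top ~1%) gates set on anti-HA fluorescence for expression and streptavidin fluorescence for reagent binding. Each polyreactivity label reflects the gate a clone came from. Genes were amplified by colony PCR, sequenced by MiSeq 2 × 250 and filtered by CDR length.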

Sequence	polyreactivity (PSR sort gate)
QVQLVESGGGLVQPGGSLRLSCAASGSTLTLYDMGWYRQAPGKEWEFVAAIRSHGVSTYYADSEKGRFTISRDNAKNTVYLQMNSLQPEDTAVYYCSSVYIPGGRYTYFPYKRYDYWGQGTKVTVSS	high polyreactivity
QVQLVESGGGLVQPGGSLSLSCAASGLTFYSYAMGWSRQAPGKERELVAAITSSGSITYYADSVKGRFTISRDNAKNTVYLQMNSLTPEDTAVYYCAARPYRVRGQRFEGNYCGQGTQVTVSS	high polyreactivity
QVQLVESGGGLVQPGVSLRLSCAASGRTSSSYTMGWYRQEPRKECELVAAITSGVRTYYADSVKGRFTISRDNAKNTVYLQMKSLKPEDTAVYYCNARYVPYTYCRKYFKPYDYWGLGTQVTVSS	high polyreactivity
QVQLVESGGGLVQRGCSLRLSCAASGSTFGYYTMGWYRQAPGKERELVSAISYSGGRTFYADSVKGRFTISRDNAKNTVYFQMISLKPEDHAVYYCNTRYIPSYLSHLDYWGQGTQVTVSS	high polyreactivity
QVQLVESGGGLVQSGASLRLSCAASGRISRFNAMGWYRQAPGKERELVAAISSGGSTHYADSVKGRFTISRDNAKITVYLQMNSLKPEDTAVYYCAASVYRWWRLEAYYYWGQGSQVTVSS	high polyreactivity
QVQLVESGGGLVQSGDSLRLSCAASGIILLSYAMGWYIHAPGKERELVAAITSGGGTNYADSVKGRFTISRDNAKNTVYLQMNSLKPEDTAVYYCAVGAYAGLYYYWGQGTQVTVSS	low polyreactivity
QVQLVESGGGLVQSGGILRLSCAATGSIFTSDAMGWYRLAPGKEMELVAAITFSGGDTYYADSVKGRFTISRDNAKNTVYLQMNSLNPEDTAVYYCNADPQQVGAYEYWGQGTQVTLSS	low polyreactivity
QVQLVESGGGLVQSGGSLPLSCAASGRIFSRNAMGWYRQAPGKERELVAAITSGGSTYYADSVKGRFTISRDNAKNTVYLQMNSLKPEDTAVSTVKILRYDYWGQGTQVTVSS	high polyreactivity
QVQLVESGGGLVQSGGSLRISCAASGGIFKYNAMGWYTQAPGKERELVAAINYSGGRTYYADSVKGRFTISRDNAKNTVYLQMNSLKPEDTAVFYCNALTRGHTGQPYTYDYWGQGNQVTVSS	high polyreactivity
QVQLVESGGGLVQSGGSLRLSCAASGFTFASYAMGWYRQAPGKERELVAAIDSDDSTNYADSVKGRFTISRDNAKNTVYLQMNSLKPEDTAVYYCAADEGPYYGIYEYYYWGQGTQVTVSS	high polyreactivity
QVQLVESGGGLVQSGGSLRLSCAASGGTFRSYAMGWYIQAPGKERELVYAIRRSGGSTYYADSVKGRFTISRDNTKNTVYLQMNSLKPEDTAVYYCAARGYNSRRIWKYYYWGQGTQVTVTS	high polyreactivity
QVQLVESGGGLVQSGGSLRLSCAASGITFFEYAMGWYRQAPGKERELVAVITSGGSTNYADSVKGRFTISRDNAKNTVYLQMNSLKPEDTAVYYCNALVVKYRWWYDYYYWGQGTQVTVSS	low polyreactivity
QVQLVESGGGLVQSGGSLRLSCAASGRIIIRYAMGWYIQEPGKERELVAAISKNGGTTYYADSVKGRFTISRDNAKYTVYLQMNSLKPVDTAVYYGAKRLVSRGRTYAYPEYDYWGQGTQVTVSS	high polyreactivity
QVQLVESGGGLVQSGGSLRLSCAASGRTYDSYAMGWYRPAPGKERELVAVISRSGRTYYADSVKGRFTISRDNAKNTVYLQMNSLKPEDTAVYYCAAKWFRTWSGYWGQGSQVTVSS	high polyreactivity
QVQLVESGGGLVQSGGSLRLSCAASGSIFIGNTMGWYRQAPGKERELVATIRRSGSRTYYADSVKGRFTISRDNAKHTVYLQMNSLKPEDTAVYYCAAVRLRTSGYKTIYDYWGQGTQVTVSS	low polyreactivity
QVQLVESGGGLVQSGGSLRLSCAASGSIFYLYAMGWYRQAPGKERELVAAISWTGGSSYYADSVKGRFTISRDNAKNTVYLQMNSLKPEDTAVYYCAADRVLGGPQPGGSSFRGDYWGQGTQVTVSS	low polyreactivity

Sequence	polyreactivity (PSR sort gate)
QVQLVESGGGLVQSGGSLRLSCAASGSILKFNAMVWYRQAPGKERELVAAITRGTNTYYADSVKGRFTISRDNAKNTVYLQMNSLKPEDTAVYYCAARLPYNAIGYYYWGQGTQVTVSS	low polyreactivity
QVQLVESGGGLVQSGGSLRLSCAASGSTFNYYAMGWYRQAPGKERELVAVINKSGGRTNYADSVKGRFTISRDNAKNTVYLQMNSLKPEDTAVYYCNKVTRREGSYGYPSRYEYWGQGTQVTVSS	high polyreactivity
QVQLVESGGGLVQSGGSLRLSCAASGSTFSRYVMGSYRQAPGKERELVAAITNTGSTYYADSVKGRFTISRDNAKNTVYLQMNSLKPEDTAVYYCAATQYRSDGWRYDYWGQGTQVTVSS	high polyreactivity
QVQLVESGGGLVQSGGSLRLSCAASGSTLIGNAMGWYRQAPGKERELVAAISSGGRTYYADSVKGRFTISRDNAKNTVYLQMNSLKPEDTAVYYCAADTVGTNVVSPELDYWGQGTQVTVSS	low polyreactivity
QVQLVESGGGLVQSGGSLRLSCAASGYIFGYYAMGWYRQAPGKERELVAAITGTDDTYYADSVKGRFTISRDNAKNTVYLQMNSLKPEDTAVYYCAAYSWWNEYDYWGQGTQVTVSS	high polyreactivity
QVQLVESGGGLVQSGGSLRLSCAASGYIIPRYAMGWYIHAPGKERELVAGITTGVRTNYADSVKGRFTISRDNAKNSVYLQMNSLKPGDTAVYYCNARYFRYRYNRYDYWGQGTQVTVSS	high polyreactivity
QVQLVESGGGLVQSGGSLRLSCAASGYIVRNAMGWYRQAPVKERELVAAITWSGGSTYYADSVKGRFTISRDNAKNTVYLQMNSLKPEDTAVYYCNARRNVRQTFGYEYWGQGTQVTVSS	high polyreactivity
QVQLVESGGGLVQSGGSLRLSSASSGRTFSGYVMGWYRQAPGKEREFVAVISRGGSTYYADSVKGRFTISRDNAKNTVYLQMNSLKPEDTAVYYCAGRLTYTGGQGAYDYWGQGTQVTVSS	high polyreactivity
QVQLVESGGGLVQSGGSLRLTCAASGFIFHKYVMGWYSPAPGKEREMVAAISRSGASTYYADSVKGRFTISRDNAKNTVYLQMNSLKPEDTAVYYCAKDYQTYSGSSDFDYWGQGSQVTVSS	high polyreactivity
QVQLVESGGGLVQSGGSLRLTCAASGSILWYNGMGWYSQAPGKERELVAAITSGGSTNYADSVKGRFTISRDNAKNTFYLHMNSLKPEDTEVYYCKARPYWFGSYGYWGQGTKVTVSS	low polyreactivity
QVQLVESGGGLVQSRGSLSLICAASGRTYRTYTMGWYRQSPGKERQFVAAIDRTGGSTYYADSVKGRFTISRDNAKNTVYLQMNSLKPEDTAVYYCAATASYIYWGKIYGYDYWGQGTQVTVSS	high polyreactivity
QVQLVESGGGLVQTGGSLRLSCAASGFNFYINAMGWYRQAPVKERELVAAINWRTGSTYYADSVKGRFTISRDNAKNTVYLQMNSLKQEDTAVYYCAAYGYWRRADTEFDYWGQGTQVTVSS	low polyreactivity
QVQLVESGGGLVQTGGSLRVSCAASGLIFSRSAMGWYRQAPGKVRELVAAISSRGGSTYYADSVKGRFTISRDNAKNTVYLQMKSLIPEDTAVYFCDASRSYVHPVIGYGYWGQGTQVTVSS	high polyreactivity
QVQLVESGGGLVQVGGILLLSCAASGFTFYDYAMGWYRQAPGKERELVAAISRGGSTYYADSVKGRFTISRDNAKNTVNLQMNSLKPEDTAVYYCNARPTRIYHGMVYWGQGTQVTVSS	low polyreactivity
QVQLVESGGGLYQAGGSLRLSCAASGRIFATNAMRWSRQAPGKERELVATITRSAGRTYYADSVKGRFTISRDNAKNTVYLQMNSLKPEDTAVYYCAASYWDTEPGYREYDYWGQGTQVTVSS	low polyreactivity
